To fix the notation:
B1: Twister Ribozyme (parent)
chain: AACACUGCCAAUGCCGGUCCCAAGCCCGGAUAAAAGUGGAGGGGGCGG

The variants in the data set derive from B1. Briefly: self-cleavage, relative activity (ratio to wild type); higher = more cleavage; co-transcriptional.
As to AACGCUGCCAAUGACGGUCCCAAGCCCGGAUAAAAGUGGAGGGGGCGG [A4G C14A], the self-cleavage came out at 0.76. The result for AACACUGCCAAUGCCGGACCCAAGCCCGGAUAAAAGUGGAGGGCGCGG [U18A G44C] reads 0.448.

Consider AACACUGCCAAUUCCGGUCCAAAGCCCGGAUAAAAGUGGAGGGGGCGG [G13U C21A], for which the self-cleavage came out at 0.0794. Regarding AACAGUGCCAAUGCCGGUCCCAAGACCGGAUAAAAGUGGAGGGGGCGG [C5G C25A], the self-cleavage was 0.0988. The same measure for AACACUGCCAAUGCCGGUCCCAAGCCCAGAUAAAAGUGGAGGGGGGGG [G28A C46G]: 0.864; for AACACUGCCAAUGCCGGUGCCAAGCCCGGAUAAAAGUGAAGGGGGCGG [C19G G39A]: 0.104. The same measure for AACACUGCCAAUGCCGGUCCCAAGCCCGGAUAAAAGUGGCGGGGGCGG [A40C]: 0.262; for AACACUGCCAAUGCCGGUCCCAAGCCCCGAUAAAAGUGGAGGGGUCGG [G28C G45U]: 0.349. For AACACUGCCAUUGCCGGUCCCAAGCCCGGAUAAAAUUGGAGGGGGCGG [A11U G36U], the self-cleavage came out at 0.849. The result for AACACUGCCAAUGCAGGUCCCAAGCCCGGAUAAAAGUGGAGGGUGCGG [C15A G44U] reads 0.661.

On to AACACUGCCAAUGCCGGUCCCAAGCCCGGAUAAAGGUGGAGGGGGCGG [A35G], for which the self-cleavage worked out at 0.864. The same measure for AAAACUGCCAAUGCCGGUCCCAAGCCCGGAUAAAAGUGGAGGGGGAGG [C3A C46A]: 0.2.

On to AACAAUGCCAAGGCCGGUCCCAAGCCCGGAUAAAAGUGGAGGGGGCGG [C5A U12G], for which the self-cleavage was found to be 0.42. The result for AACACGGCCAAUGCCGGUCCCAAGCCAGGAUAAAAGUGGAGGGGGCGG [U6G C27A] reads 0.0375. For AACACUGCCAAUGCCGGUCCCAAGCUCGGAUAAAAGGGGAGGGGGCGG [C26U U37G], the self-cleavage came to 0.118.

On to AACACUGCGAAUGCCGAUCCCAAGCCCGGAUAAAAGUGGAGGGGGCGG [C9G G17A], for which the self-cleavage is 0.103. Consider AUCACUGCCAAUGCAGGUCCCAAGCCCGGAUAAAAGUGGAGGGGGCGG [A2U C15A], for which the self-cleavage was 0.194. The same measure for AACACUGCCAAUGCCGGUCCCAGGCCCGGAUAAAAUUGGAGGGGGCGG [A23G G36U]: 0.0865; for AACACUGCCAAUGCCGGUCCCAGGCCCGGAUAAAAAUGGAGGGGGCGG [A23G G36A]: 0.126; for AACACCGCCAAUGCCGGUCCCAAGCCCGGAUAAAGGUGGAGGGGGCGG [U6C A35G]: 0.832. The same measure for AACACUGCCAAUGCCGGUCCCAAGACCGGAUAAAAGUGGAGGGUGCGG [C25A G44U]: 0.107; for AACACUGCCAAUGCCGGUCCAAAGCCCGGAUAAGAGUGGAGGGGGCGG [C21A A34G]: 0.052. Take AACACUGCCGAUGCCGGUCCCAAGCCCGGAUAAAGGUGGAGGGGGCGG [A10G A35G]: the self-cleavage was 0.92. The result for AACACUGCCAAUGCCGGUCCUAAGCCCGGAUAAAAGUUGAGGGGGCGG [C21U G38U] reads 0.0705; that for AAUACUGCCAAUGCCGGUCCCAAGCCCGGAUAAAAGUGGAGGGGCCGG [C3U G45C], 0.179; that for AACACUGCCAAUGCCGGUCCCAAGCCCGGAUAAAAGUGGAGAGGGCGC [G42A G48C], 0.624. AACACUGCCAAUGCCGGUCCCAAGCCAGGAUAAAAGUAGAGGGGGCGG [C27A G38A]: the self-cleavage stood at 0.241. The result for AACACUGCCAAUGCCGGUCCCAAGCCCGGAUAAAAGUAGAGGGGACGG [G38A G45A] reads 0.797; that for AACACUGCCAAUGCCGGGCCCAAGACCGGAUAAAAGUGGAGGGGGCGG [U18G C25A], 0.138. The same measure for AACACUGCCAAUGCCCGUCCCAAGCCCGGAUAAAAGUAGAGGGGGCGG [G16C G38A]: 0.676; for AACACUGCCAAUGCCUGUCCCAAGCCCGGAUAAAAGUGGAGGGUGCGG [G16U G44U]: 1.14. Consider AACACUGCCAAUGCCGGUGACAAGCCCGGAUAAAAGUGGAGGGGGCGG [C19G C20A], for which the self-cleavage is 0.0695. For AACACUUCCAAUGACGGUCCCAAGCCCGGAUAAAAGUGGAGGGGGCGG [G7U C14A], the self-cleavage was 0.133. The result for AACACUGCCAAUGCCGGUCCCAUGCCCGGAUAAAAGUGGAGUGGGCGG [A23U G42U] reads 0.0934; that for AACACUGCCAAUGCCGGUCCCAAGCCCGGAUAAUAGUGGCGGGGGCGG [A34U A40C], 0.137; that for CACACUGCCAAUGCCGGUCCCAAGCCCGGCUAAAAGUGGAGGGGGCGG [A1C A30C], 0.199. For the variant AACACUACCAAUGCCGGUCCCAAGCCCGGAUAACAGUGGAGGGGGCGG [G7A A34C], the self-cleavage is 0.118. In the case of AACACUACCAUUGCCGGUCCCAAGCCCGGAUAAAAGUGGAGGGGGCGG [G7A A11U], the self-cleavage amounted to 0.573. The same measure for AACACUGCCAAUGCCGGUCCAAAGCCCGGAUAAAAGUGGAGGGCGCGG [C21A G44C]: 0.0966. The same measure for AACACUGCCAAUGCCGGUCCCAAGCCCGUAUAAAGGUGGAGGGGGCGG [G29U A35G]: 0.786. For AACACUGCCAAUGCCGGUCCCAACACCGGAUAAAAGUGGAGGGGGCGG [G24C C25A], the self-cleavage is 0.325. In the case of AACCCUGCCAAUGCCGGUCCCCAGCCCGGAUAAAAGUGGAGGGGGCGG [A4C A22C], the self-cleavage worked out at 0.0993. The result for AACACUGCCAAUGCCGGUCCCAAGCCCGGAUGAAAGCGGAGGGGGCGG [A32G U37C] reads 0.844; that for AACACUGCCAAUGCCGGUUCCAAGCACGGAUAAAAGUGGAGGGGGCGG [C19U C26A], 0.116; that for AACACUGCCAAUGCCGGUCCCAAGCCCGGAUAAAAGUGGAGAUGGCGG [G42A G43U], 0.134. The result for AACACUGCCAAUGCCGGUCCCAAGCCCGGAUUAAAGUGGAGGGGGCGA [A32U G48A] reads 0.942; that for AACACUGCCAAUGCCUGUCCCAAGCCUGGAUAAAAGUGGAGGGGGCGG [G16U C27U], 1.16. The result for AACACUGCCAAUCCCGGUCCCAAGCCCGGAUAAAAGUGGUGGGGGCGG [G13C A40U] reads 0.109; that for AACACUGCCAAUGCCGGUCCCAACCCCGGAUAAAAGGGGAGGGGGCGG [G24C U37G], 0.12. With AACUCUGCCAAUGCCGGUCCCAAGCCCGGAUAAAAGUGGAGCGGGCGG [A4U G42C], the self-cleavage was found to be 0.103. For AAUACUGCCAAUGCCGGUCCCAAGCCCGGAUAAAAGUGAAGGGGGCGG [C3U G39A], the self-cleavage was 0.146. As to AACACUCCCAAUGCCGGUCCCAAGCCCGGAUAAAAGGGGAGGGGGCGG [G7C U37G], the self-cleavage was determined as 0.062. The result for AACACUGCCAAUGCCGGUCCCAAGUCCGGAUAAACGUGGAGGGGGCGG [C25U A35C] reads 0.779; that for AACACAGCCAAUGCCGGUCCCAAGCCCGGAUAAAAGUGGGGGGGGCGG [U6A A40G], 0.178.

These data come from the RNAGym collection of RNA variant scans (doi:10.7554/elife.80360).
